Source: US20200299408A1 (Genentech, published 2020)

Assays:
[1] = biological target: T1, single chain human CD3ε-26mer-CD3γ (CD3εγ) (human); test: Biacore, human CD3εγ on chip, antibody in flow-through
T1 construct: also called human CD3εγ
T1 chain: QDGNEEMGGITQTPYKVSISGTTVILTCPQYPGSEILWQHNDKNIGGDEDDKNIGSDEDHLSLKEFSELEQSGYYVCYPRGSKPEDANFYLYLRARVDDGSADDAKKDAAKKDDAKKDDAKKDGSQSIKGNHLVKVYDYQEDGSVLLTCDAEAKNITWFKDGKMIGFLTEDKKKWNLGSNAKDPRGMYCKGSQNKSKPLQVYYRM

cyCD3εγ = biological target: T2, cyCD3εγ (cynomolgus monkey); test: monovalent binding affinity, method not stated on the sheet
T2 chain 1: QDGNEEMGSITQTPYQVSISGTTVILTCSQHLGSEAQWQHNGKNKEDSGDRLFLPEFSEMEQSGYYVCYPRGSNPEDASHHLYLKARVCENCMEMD
T2 chain 2: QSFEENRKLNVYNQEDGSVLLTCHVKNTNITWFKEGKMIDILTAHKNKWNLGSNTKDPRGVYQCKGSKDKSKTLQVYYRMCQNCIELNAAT

Kd [1]: 0.8 nM
koff [1]: 0.0051 s⁻¹
kon [1]: 6.06e+06 M⁻¹ s⁻¹
Kd (cyCD3εγ): 0.7 nM
B1: hu38E4.v1 Fab (Fab, V domains shown)
VH: EVQLVQSGAEVKKPGASVKVSCKASGFTFTSYYIHWVRQAPGQGLEWIGWIYPENDNTKYNEKFKDRVTITADTSTSTAYLELSSLRSEDTAVYYCARDGYSRYYFDYWGQGTLVTVSS
VL: DIVMTQSPDSLAVSLGERATINCKSSQSLLNSRTRKNYLAWYQQKPGQSPKLLIYWTSTRKSGVPDRFSGSGSGTDFTLTISSLQAEDVAVYYCKQSFILRTFGQGTKVEIK
notes: Humanized anti-CD3 Fab; Point mutants of it were expressed as Fabs in HEK293 cells
